# Source: patent publication US20240317826A1 (ALBERT EINSTEIN COLLEGE OF MEDICINE, published 2024)
# Target: T1, GST-CTD (C-terminal domain of HIV-1 integrase, aa 201-288, GST fusion) (HIV-1 (Hx3B), UniProt P04585 1348-1435)
# T1 construct: domain: C-terminal (IN-CTD, aa 201-288 of integrase); also called IN-CTD; pGST-IN-CTD(aa 201-288); not shown: GST tag from pGEX3xPL vector
# Experiment: Alpha proximity competition, low salt: increasing INI1183-304 added to GST-CTD + biotinylated TAR RNA; displaced competitor is TAR RNA
binder,measurement,value
"His6-SUMO-INI1183-304 (other, range 183-304; also called 6His-SUMO-INI1183-304; Rpt1 (cartoon label); not shown: His6-SUMO (h6-smt3) tag from pET28a-h6-smt3) PEVLVPIRLDMEIDGQKLRDAFTWNMNEKLMTPEMFSEILCDDLDLNPLTFVPAIASAIRQQIESYPTDSILEDQSDQRVIIKLNIHVGNISLVDQFEWDMSEKENSPEKFALKLCSELGLG",IC50,~5 nM
